This series concerns the molecule itself. Briefly: SEC. (In general: SEC sorts molecules by how far they enter the pores of the column.)

In general, stoichiometry N refers to a count of units in the complex or per binding partner.

B1: SepF-His (H. volcanii SepF expressed in E. coli, plasmid pSVA3969) (natural protein, Haloferax volcanii, UniProt D4H018 1-118, looked up)
chain: MGIMSKILGGGGSRTTEDYVELDLDDFDTARGDAGLSVHIAEIGGQQDVIAIKDAVYDGNLVIADITRHTTSDSTMEHIIDDLRQVAREVDGDIVQKGDDQIVITPTGISISRQKLNG
Turning to B1, the “stoichiometry N” value worked out at 2.

For the origin of these results see publication doi:10.1101/2020.10.06.327809 (bioRxiv, 2020).
